Fold of CHMP2B pulled down by spastin antibody against CHMP2B^WT and fold of spastin pulled down against CHMP2B^WT data for 2 substances are collected here from PMC9682730.

Assay [1] addresses spastin (human (endogenous in HEK293)) (UniProt Q9UBP0). Briefly: co-IP; reverse IP with spastin antibody from transfected cells, western blot with FLAG antibody; three independent experiments. (Immunoblotting shows a protein as a band on a membrane.)
The next assay has as its target FLAG-CHMP2B^Intron5 (UniProt Q9UQN3). Briefly: co-IP; anti-FLAG M2 affinity gel IP from lysates of transfected HEK293 cells, overnight at 4 °C, washed with 50 mM Tris-HCl pH 7.4, 150 mM NaCl, FLAG elution; western blot with spastin antibody; four independent experiments, normalised to the abundance of CHMP2B^WT versus CHMP2B^Intron5.

FLAG-CHMP2B^Intron5, sequence (Q9UQN3 whole entry): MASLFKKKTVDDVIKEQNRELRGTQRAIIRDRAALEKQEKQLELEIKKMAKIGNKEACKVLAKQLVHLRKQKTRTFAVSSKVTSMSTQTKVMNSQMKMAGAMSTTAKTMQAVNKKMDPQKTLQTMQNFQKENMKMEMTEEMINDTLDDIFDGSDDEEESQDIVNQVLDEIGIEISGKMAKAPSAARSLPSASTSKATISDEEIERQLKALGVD

As for “FLAG-CHMP2B^Intron5 (from UniProt Q9UQN3 1-213) (natural protein)”, the fold of CHMP2B pulled down by spastin antibody against CHMP2B^WT in assay [1] is 3.3 times.

For the substance “spastin (from UniProt Q9UBP0 87-616) (natural protein)”, in the assay with FLAG-CHMP2B^Intron5, the fold of spastin pulled down against CHMP2B^WT stood at 11 times.
